According to US20120288474A1, “COMPOSITION FOR TREATMENT OF CXCL8-MEDIATED LUNG INFLAMMATION” (PROTAFFIN BIOTECHNOLOGIE AG, priority 2009, published 2012):

Assays:
Type in all cases: in vivo
[1] = tested on: C57BL/6J female mice intranasal instilled with LPS; assay: LPS-induced acute lung inflammation, intranasal LPS instillation (Example 1)
Experimental: To assess potential of PA401 as anti-inflammatory in models of acute lung neutrophilia, a dose-response study with subcutaneous administration of PA401 at doses of 4, 40, 200 and 400 μg/Kg in C57BL/6J female mice intranasal instilled with LPS (0.3 μg/mouse, serotype […]) was performed. Sham instilled (saline) and Dexamethasone 3 mg/kg s.c. (administered at t=−1 h before LPS instillation) treated animals were used as controls. Bronchoalveolar lavage (BAL) was performed 4 h post LPS instillation and total cell count on BAL samples, as well as differential cell count on BAL cytospin were measured.

[2] = tested on: male Balb/c mice aerosolized with LPS; assay: LPS aerosol acute lung inflammation, s.c. or i.v. treatment (Example 2)
Experimental: A second study was performed using a slightly different model, which imply a different mouse strain and gender (male Balb/c instead of C57BL/6) a different LPS strain and serotype (Salmonella enterica instead of E. Coli) and a different LPS administration (aerosol—3.5 mg/7 mL over 30 min—instead of intranasal). PA401 doses of 4, 40 and 400 μg/kg were administered either by s.c. or i.v. route at t=−5 and t=+3 h from LPS exposure. BAL total and differential cell count were evaluated at t=8 h, a later time point compared to the previous study.
Saline aerosolized mice and mice receiving an intra tracheal administration of Dexamethasone (20 μg/20 ∥l/mouse at t=−1 h) were used as control.

[3] = tested on: C57BL/6J female mice exposed to cigarette smoke; assay: Acute model of cigarette smoke induced lung inflammation, four-day exposure (Example 3)
Experimental: Lung inflammation was induced in C57BL/6J female mice (a susceptible strain) by exposure to cigarette smoke of 4 to 6 cigarette over a four-day period. Dose response activity of subcutaneous PA401 treatment at the doses of 4, 40 and 400 μg/kg administered at t=+30 min and t=+6 h from smoke exposure, on cell infiltrates on bronchoalveolar lavages was evaluated 24 h after last cigarette smoke exposure. Air exposed, and Roflumilast (5 mg/kg oral) treated animals serve as controls.

[4] = tested on: C57BL/6J female mice exposed to cigarette smoke; assay: Sub-chronic model of cigarette smoke induced lung inflammation, eleven-day exposure, dose frequency (Example 4)
Experimental: In this study lung inflammation was induced in C57BL/6J female mice by exposure to cigarette smoke of 4 to 6 cigarettes over an eleven-day period. Dose frequency activity of subcutaneous PA401 treatment at the optimal dose of 400 μg/kg, based on the study in example 3, administered at t=+30 min and t=+6 h from smoke exposure (twice a day: b.i.d.), once daily at +3 h (q.d) and every other day (q.o.d) at +3 h, on cell infiltrates on bronchoalveolar lavages was evaluated 24 h after last cigarette smoke exposure. Air exposed, and Roflumilast (5 mg/kg oral) treated animals serve as controls.

[5] = tested on: C57BL/6J female mice exposed to cigarette smoke; assay: Sub-chronic model of cigarette smoke induced lung inflammation, eleven-day exposure, 400 vs 40 μg/kg (Example 5)
Experimental: In this study lung inflammation was induced in C57BL/6J female mice by exposure to cigarette smoke of 4 to 6 cigarettes over an eleven-day period. PA401 at the dose of 400 μg/kg daily subcutaneous was compared to the dose of 40 μg/kg daily subcutaneous. Treatment was performed at t+3 h and effects on cell infiltrates on bronchoalveolar lavages were evaluated 24 h after last cigarette smoke exposure. Air exposed, Roflumilast (5 mg/kg oral) treated animals as well as animals treated with the CXCR2 antagonist SCH527123 (10 mg/kg twice a day oral-total daily dose 20 mg/kg) serve as controls.

[6] = tested on: male Balb/c mice exposed to LPS aerosol; assay: LPS aerosol lung inflammation, intra-tracheal local delivery to the lung (Example 6)
Experimental: In this experiment lung inflammation was induced by the delivery of LPS by aerosol (Salmonella enterica, 3.5 mg/7 mL over 30 min) in male Balb/c mice. PA401 was administered intra-tracheally (i.t.) using a MicroSprayer (FJM-250 syringe; PennCentury), a device that allows delivery of a plume of aerosol (mass median diameter 16-22 μm) directly into the lungs. PA401 i.t. administration was performed at the doses of 100, 40, 10 and 4 μg/kg either 1 h before LPS exposure, or 1 h after the end of LPS exposure. Bronchoalveolar lavage (BAL) was performed 8 h post LPS exposure and total cell and neutrophil numbers were measured. Dexamethasone 20 μg/20 μl mouse i.t. was used as reference compound.

[7] = s.c. 4-400 μg/Kg, BAL cytospin 4 h post LPS
[8] = 400 μg/kg s.c., all treatment frequencies (b.i.d., q.d., q.o.d.)
[9] = 400 μg/kg s.c., b.i.d. and q.d.
[10] = i.t. 100, 40, 10 and 4 μg/kg, 1 h before or 1 h after LPS, BAL 8 h post LPS

B1: PA401: del6F17KF21KE70KN71K IL-8 mutant; modified IL-8 with increased GAG binding affinity and down-regulated GPCR activity (protein, UniProt P10145 23-99, looked up, variant del1-6 F17K F21K E70K N71K)
Interleukin-8: AVLPRCQCIKTYSKPKHPKKIKELRVIESGPHCANTEIIVKLSDGRELCLDPKENWVQRVVEKFLKRAKKS
- inhibition of cell infiltration in the BAL compared with Dexamethasone 3 mg/kg ([1]; PA401 200 and 400 μg/kg s.c., Dexamethasone 3 mg/kg s.c.): comparable to that obtained with the treatment with a high dose of Dexamethasone
- total number of cells infiltrated in lung as assessed in the BAL fluid ([1]; s.c. 4, 40, 200 and 400 μg/Kg, BAL 4 h post LPS instillation): dose-dependent reduction
- number of lymphocytes in BAL [1, 7]: significant reduction
- number of neutrophils in BAL [1, 7]: significant reduction
- lowest dose with significant effect on neutrophils and lymphocytes ([1]; s.c., BAL 4 h post LPS): 4 µg/kg
- number of total cells in the BAL ([2]; 4, 40 and 400 μg/kg s.c. or i.v. at t=-5 and t=+3 h from LPS, BAL at t=8 h): highly significant reduction
- neutrophils count in the BAL ([2]; 4, 40 and 400 μg/kg s.c. or i.v., BAL at t=8 h): reduction
- inhibitory effect compared with intra tracheal dexamethasone ([2]; PA401 i.v., Dexamethasone 20 μg/mouse i.t. at t=-1 h): reaching the same inhibitory effects of intra tracheal administration of dexamethasone
- activity by route of administration (intravenous vs subcutaneous) ([2]; i.v. vs s.c., BAL at t=8 h): more significant when administered by intravenous than by subcutaneous route
- cell subtypes (neutrophil, macrophage, epithelial cells, lymphocyte) in BAL at the other two doses ([3]; 4 and 40 μg/kg s.c.): Significant effect on most of these cell subtypes
- total cell infiltrates in BAL ([3]; 40 and 400 μg/kg s.c.): Highly significant effect
- inhibitory effect compared with Roflumilast 5 mg/kg ([3]; PA401 400 μg/kg s.c., Roflumilast 5 mg/kg oral): comparable of that obtained with Roflumilast 5 mg/kg
- epithelial cells numbers in BAL ([3]; highest dose (400 μg/kg s.c.)): significantly reduced
- lymphocyte numbers in BAL ([3]; highest dose (400 μg/kg s.c.)): significantly reduced
- macrophage numbers in BAL ([3]; highest dose (400 μg/kg s.c.)): significantly reduced
- neutrophil numbers in BAL ([3]; highest dose (400 μg/kg s.c.)): significantly reduced
- cigarette smoke induced increase in total cell number recovered in the BAL ([3]; s.c. 4, 40 and 400 μg/kg at +30 min and +6 h, BAL 24 h after last exposure): dose dependently inhibited
- total cell infiltrates in BAL ([4]; 400 μg/kg s.c. twice a day, daily and every other day, 11-day smoke): Significant effect
- epithelial cells numbers in BAL [4, 8]: significantly reduced
- neutrophil numbers in BAL [4, 8]: significantly reduced
- lymphocyte numbers in BAL [4, 9]: significant reduction
- macrophage numbers in BAL [4, 9]: significant reduction
- activity on mixed cell infiltration, twice a day vs once a day ([4]; 400 μg/kg subcutaneously, 11-day repeated exposure): comparable activity
- inhibitory effect compared with Roflumilast 5 mg/kg ([4]; PA401 400 μg/kg s.c. twice and once a day, Roflumilast 5 mg/kg oral): comparable of that obtained with Roflumilast 5 mg/kg
- epithelial cells numbers in BAL ([5]; 400 and 40 μg/kg daily s.c.): significant reduction
- lymphocyte numbers in BAL ([5]; 400 and 40 μg/kg daily s.c.): significant reduction
- macrophage numbers in BAL ([5]; 400 and 40 μg/kg daily s.c.): significant reduction
- neutrophil numbers in BAL ([5]; 400 and 40 μg/kg daily s.c.): significant reduction
- total cell infiltrates in BAL ([5]; 400 and 40 μg/kg daily s.c., 11-day smoke): Significant effect
- inhibitory effect compared with Roflumilast and CXCR2 antagonist SCH527123 ([5]; PA401 400 μg/kg daily s.c., Roflumilast 5 mg/kg oral, SCH527123 10 mg/kg twice a day oral): comparable of that obtained with Roflumilast 5 mg/kg and the CXCR2 antagonist SCH527123
- neutrophil number in BAL [6, 10]: neutrophil number reduction
- total cells in BAL [6, 10]: significant dose dependent reduction
- activity on BAL cell counts at single doses ([6]; i.t. doses of 100, 40 and 10 μg/kg): significantly active
- improved activity of therapeutic treatment (t=+1 h) compared to prophylactic treatment (-1 h) ([6]; i.t., BAL 8 h post LPS): about 10%
